# B1: HA-tagged mouse CD69 (natural protein, UniProt P37217 1-199, looked up)
# chain: MDSENCSITENSSSHLERGQKDHGTSIHFEKHHEGSIQVSIPWAVLIVVLITSLIIALIALNVGKYNCPGLYEKLESSDHHVATCKNEWISYKRTCYFFSTTTKSWALAQRSCSEDAATLAVIDSEKDMTFLKRYSGELEHWIGLKNEANQTWKWANGKEFNSWFNLTGSGRCVSVNHKNVTAVDCEANFHWVCSKPSR
# Molecular target: Flag-tagged full-length mouse sphingosine 1-phosphate receptor-1 (S1P1) (mouse, UniProt O08530 1-382)
# Assay: co-IP
# Flag-tagged full-length mouse sphingosine 1-phosphate receptor-1 (S1P1), sequence (O08530 whole entry): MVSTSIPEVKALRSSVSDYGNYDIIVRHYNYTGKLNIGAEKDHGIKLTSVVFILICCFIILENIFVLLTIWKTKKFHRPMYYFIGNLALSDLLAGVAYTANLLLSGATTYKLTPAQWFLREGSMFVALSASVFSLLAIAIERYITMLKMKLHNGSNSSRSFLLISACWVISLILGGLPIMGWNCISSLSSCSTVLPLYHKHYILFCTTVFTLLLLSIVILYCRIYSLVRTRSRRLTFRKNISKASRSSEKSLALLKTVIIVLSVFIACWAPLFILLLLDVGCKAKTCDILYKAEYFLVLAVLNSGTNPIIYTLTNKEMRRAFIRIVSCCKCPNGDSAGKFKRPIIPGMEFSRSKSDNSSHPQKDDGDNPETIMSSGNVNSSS
binder,measurement,value
B1,fold interaction compared with the control proteins NKRp1A and S1P3,10 fold

# From paper PMC2903414 (The Journal of Biological Chemistry, 2010)
